The text below walks through data of PMC8357826, “The extracellular chaperone Clusterin enhances Tau aggregate seeding in a cellular model” (Nature Communications, 2021).

In this assay the target is cysteine-free TauRD (Tau repeat domain, residues 244-371, C291A/P301L/C322A/V337M) (UniProt P10636-8 244-371, C291A | P301L | C322A | V337M). Kind of assay: cell-based or functional assay.
cysteine-free TauRD (Tau repeat domain, residues 244-371, C291A/P301L/C322A/V337M), sequence (P10636 561-688 C608A/P618L/C639A/V654M): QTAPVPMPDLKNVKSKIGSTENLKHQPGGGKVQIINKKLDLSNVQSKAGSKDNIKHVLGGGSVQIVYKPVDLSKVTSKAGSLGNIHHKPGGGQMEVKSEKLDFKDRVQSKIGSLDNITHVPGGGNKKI

B1: Clusterin (Clu; apolipoprotein J), recombinant with Strep tag (CluStrep) (natural protein, human)
chain 1: DQTVSDNELQEMSNQGSKYVNKEIQNAVNGVKQIKTLIEKTNEERKTLLSNLEEAKKKKEDALNETRESETKLKELPGVCNETMMALWEECKPCLKQTCMKFYARVCRSGSGLVGRQLEEFLNQSSPFYFWMNGDRIDSLLENDRQQTHMLDVMQDHFSRASSIIDELFQDRFFTREPQDTYHYLPFSLPHRRPHFFFPKSRIVR
chain 2: SLMPFSPYEPLNFHAMFQPFLEMIHEAQQAMDIHFHSPAFQHPPTEFIREGDDDRTVCREIRHNSTGCLRMKDQCDKCREILSVDCSTNNPSQAKLRRELDESLQVAERLTRKYNELLKSYQWKMLNTSSLLEQLNEQFNWVSRLANLTQGEDQYYLRVTTVASHTSDSDVPSGVTEVVVKLFDSDPITVTVPVEVSRKNPKFMETVAEKALQEYRKKHREE
modifications: N-glycosylated | N-glycosylated
Turning to B1, the “seeding capacity in TauRD-YT cells of the soluble fraction of a TauRD aggregation reaction made without Clu, after adding Clu” value was around 5 fold and the “specific seeding activity (FRET-positive TauRD-YT cells per ng TauRD) of the Clu-containing supernatant against the supernatant without Clu” value was around 40 fold.
